Patent US20220267421A1 (INVOX PHARMA, published 2022)
Residue numbers refer to the chain shown, from its start. Where two headings read alike, the source gives them in different places. Blank lines part the entries; values can stand above or below the binder they belong to.

Key:
[1] = target: T1, cell surface human mesothelin (MSLN) (human, UniProt Q13421 296-598); assay: flow cytometry (BD CantoII), NCI-H226 cells
T1 construct: whole, on cells; also called cell surface MSLN

[2] = target: T2, human MSLN-His-Avi (human, UniProt Q13421 296-598, single biotin (BirA) in the biotinylated form); assay: ratio of the two SPR KD
T2 construct: Monomeric, made in HEK293-6E; Used both immobilised and in solution; also called hMSLN-His-Avi; biotinylated hMSLN-His-Avi
T2 sequence (Q13421 other isoform, or with tags, fused parts or gaps): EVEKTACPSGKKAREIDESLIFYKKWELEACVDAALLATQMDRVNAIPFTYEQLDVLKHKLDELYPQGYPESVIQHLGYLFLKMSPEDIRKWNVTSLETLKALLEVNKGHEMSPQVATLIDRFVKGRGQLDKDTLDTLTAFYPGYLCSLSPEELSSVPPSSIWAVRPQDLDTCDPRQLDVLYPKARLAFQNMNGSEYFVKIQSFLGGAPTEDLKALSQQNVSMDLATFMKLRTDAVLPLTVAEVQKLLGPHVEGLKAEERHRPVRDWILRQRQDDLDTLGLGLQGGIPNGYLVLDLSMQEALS
Description: (§1) Human MSLN-His-Avi was immobilised on flow cell 2 on a CM5 Series S BIAcore sensor chip (GE Healthcare, BR100530) using an amine coupling kit (GE Healthcare, BR10050) to approximately 200 response units (RU). Flow cell 1 was left blank for subtraction. HEK293-6E supernatants or purified proteins were adjusted with HBS-EP+(GE Healthcare) to approximately 50 nM anti-MSLN mAb per sample. Samples were injected over flow cell 1 and 2 for 2.5 min at 30 μl/min and then allowed to dissociate in HBS-EP buffer for 2.5 min. Regeneration was achieved by injecting 10 mM glycine pH 1.5 (GE Healthcare, BR100354) for 30 seconds at a rate of 30 μl/min. Subtracted data (flow cell 2−flow cell 1) were analysed using BIAevaluation 3.2 Software (GE Healthcare).
(§2) Binding of the selected anti-MSLN clones in mAb² format, to recombinant human and cyno MSLN-His-Avi antigen was measured by SPR using a Biacore T200 processing unit (GE Healthcare). As previously described, it was desirable to bind more strongly to immobilised antigen than to soluble antigen. To assess the binding properties of the clones, binding kinetics to immobilised MSLN antigen were determined as described in section 2.1.2 and compared to the kinetics obtained when MSLN antigens in solution bound to captured clones.
(§3) For the capture experiments, clones in mAb² format were captured using a BIAcore sensor series S chip Protein G (GE Healthcare, 29179315). mAb² diluted in HBS-EP buffer (GE Healthcare, BR100188) containing 900 mM […] at 1 μg/ml, were injected individually on flow cell 2, 3 and 4 at 30 μl/min to achieve a response of approximately 100 RU. G1-AA/HeID1.3 was captured on flow cell 1. The recombinant human and cyno MSLN-His-Avi (section 1.1), diluted in HBS-EP buffer containing 900 mM […], were injected on flow cell 1, 2, 3 or 4 as appropriate at a concentration range of 1000 nM to 0.051 nM with 3-fold dilutions for 5 minutes at 70 μl/min and then allowed to dissociate in buffer for 5 minutes. Regeneration was achieved by injecting 10 mM glycine pH1.5 (GE Healthcare, BR100354) and surfactant P20 (GE Healthcare, BR-1000-54) for 20 seconds at a rate of 30 μl/min.

[3] = target: T1, cell surface human mesothelin (MSLN); assay: flow cytometry (BD CantoII), NCI-H226 cells + 20 nM soluble MSLN
[4] = target: T2, human MSLN-His-Avi; assay: SPR (Biacore), MSLN immobilised, mAb^2 injected
Description: as §1, §2

[5] = target: T3, cynomolgus MSLN-His-Avi (cynomolgus, single biotin (BirA) in the biotinylated form); assay: SPR (Biacore), mAb^2 captured on Protein G, MSLN in solution injected
T3 construct: Monomeric, made in HEK293-6E; also called cMSLN-His-Avi; cyno MSLN-His-Avi
T3 chain: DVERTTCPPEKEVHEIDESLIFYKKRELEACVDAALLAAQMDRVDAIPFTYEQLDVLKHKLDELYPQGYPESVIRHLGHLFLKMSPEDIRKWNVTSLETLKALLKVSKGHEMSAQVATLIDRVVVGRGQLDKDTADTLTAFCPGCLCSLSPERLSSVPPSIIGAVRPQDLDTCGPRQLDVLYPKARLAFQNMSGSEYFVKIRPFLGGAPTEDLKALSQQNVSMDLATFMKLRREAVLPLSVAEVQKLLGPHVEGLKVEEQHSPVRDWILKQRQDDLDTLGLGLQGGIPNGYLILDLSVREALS
Description: as §2
as §3, with “μl/min. Subtracted data (flow cell 2−flow cell 1, flow cell 3−flow cell 1, or flow cell 4−flow cell 1) were analysed using BIAevaluation 3.2 Software (GE Healthcare) to identify binding using the model 1:1 binding, local Rmax and with refractive index (RI) constant 0.” for “μl/min.”

[6] = target: T2, human MSLN-His-Avi; assay: as above
Description: as §2
as §3, with “μl/min. Subtracted data (flow cell 2−flow cell 1, flow cell 3−flow cell 1, or flow cell 4−flow cell 1) were analysed using BIAevaluation 3.2 Software (GE Healthcare) to identify binding using the model 1:1 binding, local Rmax and with refractive index (RI) constant 0.” for “μl/min.”

[7] = target: T2, human MSLN-His-Avi; assay: SPR as Example 4.1 (about 40 RU instead of 100), MSLN in solution
[8] = target: T2, human MSLN-His-Avi; assay: SPR as Example 4.1 (about 40 RU instead of 100), MSLN immobilised
[9] = target: T2, human MSLN-His-Avi; assay: ratio of the two SPR KD; remark: listed apart in the source
[10] = target: CD137 on CD8+ T cells (human, UniProt Q07011 24-255); assay: cell-based or functional assay
CD137 on CD8+ T cells, sequence (Q07011 24-255): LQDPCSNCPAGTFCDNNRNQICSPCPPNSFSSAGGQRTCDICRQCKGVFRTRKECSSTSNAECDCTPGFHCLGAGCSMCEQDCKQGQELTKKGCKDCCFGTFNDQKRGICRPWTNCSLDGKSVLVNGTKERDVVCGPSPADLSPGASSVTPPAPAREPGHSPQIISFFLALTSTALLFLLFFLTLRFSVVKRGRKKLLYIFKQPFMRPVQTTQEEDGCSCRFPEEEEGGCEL

[11] = target: T1, cell surface human mesothelin (MSLN); assay: cell-based or functional assay
[12] = target: T4, mouse MSLN-His-Avi (mouse, UniProt Q61468 298-600, single biotin (BirA) in the biotinylated form); assay: ratio of the two SPR KD
T4 construct: Monomeric, made in HEK293-6E; also called mMSLN-His-Avi
T4 sequence: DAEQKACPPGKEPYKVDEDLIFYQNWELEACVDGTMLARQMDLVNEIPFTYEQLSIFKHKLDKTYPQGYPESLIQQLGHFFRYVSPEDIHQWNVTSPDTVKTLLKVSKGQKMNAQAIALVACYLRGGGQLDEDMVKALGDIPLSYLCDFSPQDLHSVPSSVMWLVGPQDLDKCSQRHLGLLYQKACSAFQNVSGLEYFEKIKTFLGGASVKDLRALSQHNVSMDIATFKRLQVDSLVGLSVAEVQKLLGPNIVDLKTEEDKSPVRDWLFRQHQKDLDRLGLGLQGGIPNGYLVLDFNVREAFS
Description: (§4) The procedure for binding to immobilised MSLN was similar to the method described in section 2.1.4 with mMSLN-His-Avi immobilised at 50 RU. To determine the affinity for soluble MSLN the mAb² were captured via anti-human Fc. Briefly, 25 μg/ml anti-human IgG (Fc) antibody (GE Healthcare, Human Antibody Capture Kit, BR100839) was coated on flow cells 1, 2, 3 and 4 of a Biacore sensor chip CM5 (GE Healthcare, BR100530) achieving a final response of approximately 750 RU. The mAb² clones, diluted in HBS-EP buffer (GE Healthcare, BR100188) at 50 nM, were injected individually on flows cell 2, 3 and 4 at 30 μl/min to achieve a response of approximately 100 RU. […] Regeneration was achieved by injecting 3 M magnesium chloride (GE Healthcare, Human Antibody Capture Kit, BR100839) for 30 seconds at a rate of 30 μl/min.

[13] = target: T4, mouse MSLN-His-Avi; assay: SPR (Biacore), mAb^2 captured via anti-human Fc, mMSLN-His-Avi in solution
Description: as §4

[14] = target: T4, mouse MSLN-His-Avi; assay: SPR (Biacore), mMSLN-His-Avi immobilised at 50 RU
Description: as §4

[15] = target: T5, OX40 on activated T cells (UniProt P43489 29-277, limits assumed); assay: cell-based or functional assay
T5 sequence (looked up): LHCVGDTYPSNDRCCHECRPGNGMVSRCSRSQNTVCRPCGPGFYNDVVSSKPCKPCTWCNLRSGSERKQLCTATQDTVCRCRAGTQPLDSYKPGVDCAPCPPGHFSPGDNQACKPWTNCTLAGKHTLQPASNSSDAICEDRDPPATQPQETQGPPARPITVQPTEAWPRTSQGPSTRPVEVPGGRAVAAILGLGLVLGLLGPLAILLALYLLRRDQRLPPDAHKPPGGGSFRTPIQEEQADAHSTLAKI

T1 sequence (Q13421 other isoform, or with tags, fused parts or gaps limits assumed): as the sequence (Q13421 other isoform, or with tags, fused parts or gaps) above

EC50 [1]: 16.3 nM | Ratio of KD in solution/immobilised for human MSLN-His-Avi [2]: 15 | EC50 [3]: 14.3 nM | Kd [4]: 30.1 nM | Kd [5]: 362 nM | Kd [6]: 452 nM
B1: FS22-053-008-AA/FS28-185 (bispecific antibody, human IgG1, kappa, L234A L235A, V domains shown)
VH: EVQLLESGGGLVQPGGSLRLSCAASGFTFTTSAMSWVRQAPGKGLEWVSRINPYEGETNYADSVKGRFTISRDNSKNTLYLQMNSLRAEDTAVYYCARGWSIATYYKSAMDYWGQGTLVTVSS
VL: EIVLTQSPGTLSLSPGERATLSCRASQSVSSSYLAWYQQKPGQAPRLLIYGASSRATGIPDRFSGSGSGTDFTLTISRLEPEDFAVYYCQQSSYSAPVTFGQGTKVEIKR

Kd [7]: 18.2 nM | Kd [8]: 5.9 nM | Ratio of KD in solution/immobilised for human MSLN-His-Avi [9]: 3 | CD8+ T cell activation assay (IL-2 release), NCI-H226 cells for crosslinking: EC50 [10]: 0.096 nM | CD8+ T cell activation assay (IL-2 release), NCI-H226 cells for crosslinking: EC50 [11]: 0.096 nM
B2: FS28-256-271 (in CD137 mAb^2 format) (bispecific antibody, V domains shown)
VH: EVQLLESGGGLVQPGGSLRLSCAASGFTFTHTYMSWVRQAPGKGLEWVSAISPTYSTTNYADSVKGRFTISRDNNKNTLYLQMNSLRAEDTAVYYCARYNAYHAALDYWGQGTLVTVSS
VL: EIVLTQSPGTLSLSPGERATLSCRASQSVSSSYLAWYQQKPGQAPRLLIYGASSRATGIPDRFSGSGSGTDFTLTISRLEPEDFAVYYCQQTVPYPYTFGQGTKVEIK

Ratio of KD in solution/immobilised for mouse MSLN-His-Avi [12]: 31.9 | Kd [13]: 252 nM | Kd [14]: 7.9 nM
B3: FS22-063-AA/FS28m-228 mAb^2 (bispecific antibody, human IgG1, kappa, L234A L235A, V domains shown)
VH: EVQLLESGGGLVQPGGSLRLSCAASGFTFSTYFMVWVRQAPGKGLEWVSMISPKSSNTYYADSVKGRFTISRDNSKNTLYLQMNSLRAEDTAVYYCARWFTPARFDYWGQGTLVTVSS
VL: EIVLTQSPGTLSLSPGERATLSCRASQSVSSSYLAWYQQKPGQAPRLLIYGASSRATGIPDRFSGSGSGTDFTLTISRLEPEDFAVYYCQQPFPFSFTFGQGTKVEIKR
notes: LALA

Ratio of KD in solution/immobilised for mouse MSLN-His-Avi [12]: 23.2 | Kd [13]: 60.2 nM | Kd [14]: 2.6 nM
B4: FS22m-063-AA/FS28m-228-010 mAb^2 (bispecific antibody, human IgG1, kappa, L234A L235A, V domains shown)
VH: B3 VH with W99Y, F100H, T101I, P102S, A103P
VL: B3 VL
notes: Anti-mouse CD137 Fcab with anti-mouse MSLN Fab; LALA; also called CD137/MSLN mAb^2

T cell activation assay (IL-2 release), NCI-H226 cells for crosslinking: EC50 [15]: 0.11 nM | T cell activation assay (IL-2 release), NCI-H226 cells for crosslinking: EC50 [11]: 0.11 nM
B5: OX40 (FS20-022-049)/FS28-256-271 mAb^2 (bispecific antibody, human IgG1, kappa, L234A L235A)
heavy: EVQLLESGGGLVQPGGSLRLSCAASGFTFTHTYMSWVRQAPGKGLEWVSAISPTYSTTNYADSVKGRFTISRDNNKNTLYLQMNSLRAEDTAVYYCARYNAYHAALDYWGQGTLVTVSSASTKGPSVFPLAPSSKSTSGGTAALGCLVKDYFPEPVTVSWNSGALTSGVHTFPAVLQSSGLYSLSSVVTVPSSSLGTQTYICNVNHKPSNTKVDKKVEPKSCDKTHTCPPCPAPEAAGGPSVFLFPPKPKDTLMISRTPEVTCVVVDVSHEDPEVKFNWYVDGVEVHNAKTKPREEQYNSTYRVVSVLTVLHQDWLNGKEYKCKVSNKALPAPIEKTISKAKGQPREPQVYTLPPSRDEYWDQEVSLTCLVKGFYPSDIAVEWESNGDEQFAYKTTPPVLDSDGSFFLYSKLTVDQYRWNPADYFSCSVMHEALHNHYTQKSLSLSPG
light: EIVLTQSPGTLSLSPGERATLSCRASQSVSSSYLAWYQQKPGQAPRLLIYGASSRATGIPDRFSGSGSGTDFTLTISRLEPEDFAVYYCQQTVPYPYTFGQGTKVEIKRTVAAPSVFIFPPSDEQLKSGTASVVCLLNNFYPREAKVQWKVDNALQSGNSQESVTEQDSKDSTYSLSSTLTLSKADYEKHKVYACEVTHQGLSSPVTKSFNRGEC
